Reference: US10765761B2, “Nucleic acid condensing peptide, nucleic acid condensing peptide set, nucleic acid delivery carrier, nucleic acid delivery method, cell production method, cell detection method and kit” (KABUSHIKI KAISHA TOSHIBA, priority 2016, dated 2020)

Columns and labels:
[1] = system: human normal mammary gland epithelial cells (HMEC); test: Transfection of nucleic acid (pAmp-CMV-nLuc) into cells by liposome, luminescence imaging, Example 5; type: cell-based; conditions: 48 hours after addition of the liposome, NanoLuc (FIG. 10)
Source text: As nucleic acid to be encapsulated in the liposome, pAmp-CMV-nLuc was used. The pAmp-CMV-nLuc is a reporter vector which contains a NanoLuc gene as the reporter gene. The pAmp-CMV-nLuc includes a CMV promoter as a gene expression promoter, and in its lower stream, a NanoLuc gene, IRES sequence and a replication initiation protein (LT, large T antigen) gene of simian virus 40 (SV40) which are liked in this order, and further, in a lower stream, a replication initiation sequence (SV40 ori) of SV40. Using this nucleic acid, the protamine of Example 3 and the peptides of the mHP-1 and mHP-3, a liposome solution was produced by a method similar to that of Example 3.
The liposome solution prepared as above was added to human normal mammary gland epithelial cells (HMEC) (Kurabo Industries). The HMEC used here was prepared by reviving from an HMEC freeze stock and thereafter culturing in an incubator of a 5%-CO2 atmosphere at 37 degrees Celsius for six to seven days. […]
48 hours after the addition of the liposome, a luminescence substrate (Nano-Glo Luciferase Assay Substrate and Promega) was added to the culture medium to dilute to 1/2000. This culture dish was set to LV200 (a luminescence imaging system of Olympus) and photographed. […]

[2] = system: nucleic acid; test: Gel retardation assay: encapsulation of nucleic acid to liposome, Example 4; conditions: Complex with SDS 1% (liposome cleaved), 0.8% agarose gel (FIG. 9)
Procedure: The encapsulation of nucleic acid to liposome by the peptide of the embodiment was evaluated with a gel retardation assay.
As samples for the encapsulation evaluation, two sets of 8.0 μL of 10 mM-HEPES (pH: 7.0) were prepared and 1.0 μL of solutions of Complex respectively containing the mHP-1 or mHP-3 of Example 3 and sodium dodecyl sulfate (SDS, the final concentration: 1%) which cleavages liposome were added thereto, to prepare mixtures. In addition, as controls, a mixture to which 1.0 μL of a poly-glutamic-acid (PGA) solution was added in place of SDS, and a sample which contains neither SDS nor PGA were prepared. After the solutions were let stand still for 15 minutes at room temperature, 1.0 μL of an electrophoretic buffer (50%-sucrose solution) was added to each mixture, and they were mixed well, to carry out electrophoresis with a 0.8%-agarose gel. After the electrophoresis, the gel was immersed in an ethidium bromide solution to dye the nucleic acid and the gel was photographed while irradiating it with UV, thus detecting the nucleic acid.
FIG. 9 is a photograph taken by irradiating the agarose gel with UV.

[3] = system: plasmid vector (pDNA); test: Average particle diameter, polydispersity index and Zeta potential of peptide-nucleic-acid complexes, Example 6; type: physicochemical; conditions: peptide-nucleic-acid complex, total peptide 0.24 mg/ml, pDNA 0.15 mg/ml
Procedure: Each of the peptides was dissolved into 10 mM-HEPES (pH: 5.4) to prepare several peptide solutions having different peptide concentrations.
For the mHP-1, one peptide solution was prepared to have a peptide concentration of (1) 0.24 mg/ml. For the mHP-2, one peptide solution was prepared to have a peptide concentration of (2) 0.24 mg/ml. For the mHP-1 and mHP-2, five peptide solutions were prepared to have a total peptide concentration of 0.24 mg/ml and mixture ratios between mHP-1 and mHP-2 of: (3) 1:1, (4) 1:3, (5) 1:5, (6) 1:7 and (7) 1:9. Meanwhile, plasmid vector (pDNA) was diluted with purified water to prepare a nucleic acid solution having a pDNA concentration of 0.15 mg/ml.
The peptide solutions (1) to (7) (100 μL) were prepared in tubes and the nucleic acid solution (200 μL) was dropped and mixed thereto while stirring each solution to condense the nucleic acids, and thus peptide-nucleic-acid complexes were obtained.
The peptide-nucleic-acid complexes were investigated in terms of average particle diameter, polydispersity index and Zeta potential using the respective peptide-nucleic-acid solutions. The average particle diameter, polydispersity index and Zeta potential were measured using a zetasizer.

[4] = Average particle diameter, polydispersity index and Zeta potential of liposome (Complex), Example 8; type: physicochemical
Procedure: COATSOME/SS-20 (Nippon Oil & Fats), DOPE, cholesterol and DMG-PEG were dissolved into ethanol at a molar ratio of 5:3:1:0.3, to obtain a lipid solution. Five sets of 50 μL of lipid solutions put into tubes were prepared, and 50 μL of peptide-nucleic-acid solutions (1) to (4) and (7) of Example 6 were dropped thereto while stirring each lipid solution, thereby forming liposomes. 400 μL of 10 mM-HEPES (pH: 5.4) was added to each of the liposome solutions to make a total amount of 500 μL (this liposome solution will be referred to as “Complex” hereinafter).
The average particle diameter, polydispersity index and Zeta potential of liposome were investigated using the Complex. The average particle diameter, polydispersity index and Zeta potential were measured using a zetasizer.

Row | Sequence | luminescent cells (reporter gene expressed) [1] | encapsulation of nucleic acid in liposome [2] | Average particle diameter (zAve) [3] [nm] | Polydispersity index (PDI) [3] | Zeta potential [3] [mV] | Average particle diameter (zAve) [4] [nm] | Polydispersity index (PDI) [4] | Zeta potential [4] [mV]
1 | RQRQRGGRRRRRR (Nucleic acid condensing peptide) [mHP-3] | luminescence was observed in more cells than those of the sample which used the protamine | encapsulated well | – | – | – | – | – | –
2 | RQRQRYYRQRQRGGRRRRRR (Nucleic acid condensing peptide) [mHP-1] | luminescence was observed in most cells | encapsulated well | 156.6 | 0.190 | −31.1 | 244.7 | 0.193 | 31.6
